Assay results published in patent US20220213165A1 (University of Texas, published 2022).
Square brackets hold non-standard residues; d marks the D form. Ends that are not written are not given here.

What was measured:
[1] = biological target: T1, recombinant human EphB4 (rhEphB4) (human, UniProt P54760 16-539, limits assumed); assay: SPR, peptide over immobilized EphB4
T1 construct: Bought protein; also called purified EphB4; immobilized EphB4
T1 sequence (looked up): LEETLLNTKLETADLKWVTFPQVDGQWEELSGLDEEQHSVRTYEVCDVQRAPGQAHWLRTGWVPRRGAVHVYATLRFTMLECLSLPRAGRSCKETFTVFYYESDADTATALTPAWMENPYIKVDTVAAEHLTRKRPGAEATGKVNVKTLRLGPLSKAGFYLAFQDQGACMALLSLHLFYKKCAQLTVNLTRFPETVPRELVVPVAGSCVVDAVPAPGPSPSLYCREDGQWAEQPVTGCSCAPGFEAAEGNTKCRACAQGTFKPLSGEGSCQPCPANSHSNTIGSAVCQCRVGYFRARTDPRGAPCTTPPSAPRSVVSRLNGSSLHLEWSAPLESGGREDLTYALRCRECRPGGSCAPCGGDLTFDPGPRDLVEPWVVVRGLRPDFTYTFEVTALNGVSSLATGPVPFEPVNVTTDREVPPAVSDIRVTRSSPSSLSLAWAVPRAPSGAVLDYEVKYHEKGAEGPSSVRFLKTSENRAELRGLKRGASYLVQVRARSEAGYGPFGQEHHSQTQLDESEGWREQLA

[2] = biological target: T1, recombinant human EphB4 (rhEphB4); assay: SPR (BIACore), peptide 1.6-800 nM injected over immobilized rhEphB4
Description: FIG. 10: BIACore sensorgrams of binding of truncated peptides to immobilized rhEphB4. Retention of a peptide on a sensor chip was indicated by a change in response units (RU) over the course of the 180-s injection interval followed by a 210-s washing interval. Peptides in concentrations of 1.6 nM to 800 nM were injected over the rhEphB4 sensor chip, and the magnitude of peptide binding to immobilized EphB4 was recorded.
(§1) Surface plasmon resonance (SPR) binding and competition assays. A stock solution of EphB4 in PBS (100 μg/mL) was diluted to 25 μg/mL with 10 mM sodium acetate buffer (pH 4.5) and immobilized to CM5 sensor chips using the amine coupling reaction according to manufacturer-provided procedures (BIACore). Briefly, the surfaces of the chips in flow cells (FC)-1 and FC-2 were activated by exposing chips to a mixture of 200 mM N-ethyl-N′-dimethylaminopropyl carbodiimide and 50 mM N-hydroxysuccinimide for 7 min. FC-1 was used as a reference surface and was directly deactivated by injecting 1 M ethanolamine at pH 8.5 for 7 min. FC-2 was injected with 25 μg/mL human or murine EphB4 followed by injection of 1 M ethanolamine to block the remaining activated ester groups on the surface. The chips were allowed to stabilize for at least 2 h in HBSEP running buffer before injection of test analytes.

[3] = biological target: T2, EphB4 on the surface of A2780cp20 cells (human, UniProt P54760 16-987); assay: flow cytometry competition: A2780cp20 cells with EFNB2-Fc (20 nM) and BIDEN-AP (0-100 µM), PE-labeled anti-Fc detection
T2 construct: whole, on cells; also called EphB4 in human HeyA8 ovarian cancer cells; EphB4 in human ovarian cancer cells A2780cp20
T2 sequence (looked up): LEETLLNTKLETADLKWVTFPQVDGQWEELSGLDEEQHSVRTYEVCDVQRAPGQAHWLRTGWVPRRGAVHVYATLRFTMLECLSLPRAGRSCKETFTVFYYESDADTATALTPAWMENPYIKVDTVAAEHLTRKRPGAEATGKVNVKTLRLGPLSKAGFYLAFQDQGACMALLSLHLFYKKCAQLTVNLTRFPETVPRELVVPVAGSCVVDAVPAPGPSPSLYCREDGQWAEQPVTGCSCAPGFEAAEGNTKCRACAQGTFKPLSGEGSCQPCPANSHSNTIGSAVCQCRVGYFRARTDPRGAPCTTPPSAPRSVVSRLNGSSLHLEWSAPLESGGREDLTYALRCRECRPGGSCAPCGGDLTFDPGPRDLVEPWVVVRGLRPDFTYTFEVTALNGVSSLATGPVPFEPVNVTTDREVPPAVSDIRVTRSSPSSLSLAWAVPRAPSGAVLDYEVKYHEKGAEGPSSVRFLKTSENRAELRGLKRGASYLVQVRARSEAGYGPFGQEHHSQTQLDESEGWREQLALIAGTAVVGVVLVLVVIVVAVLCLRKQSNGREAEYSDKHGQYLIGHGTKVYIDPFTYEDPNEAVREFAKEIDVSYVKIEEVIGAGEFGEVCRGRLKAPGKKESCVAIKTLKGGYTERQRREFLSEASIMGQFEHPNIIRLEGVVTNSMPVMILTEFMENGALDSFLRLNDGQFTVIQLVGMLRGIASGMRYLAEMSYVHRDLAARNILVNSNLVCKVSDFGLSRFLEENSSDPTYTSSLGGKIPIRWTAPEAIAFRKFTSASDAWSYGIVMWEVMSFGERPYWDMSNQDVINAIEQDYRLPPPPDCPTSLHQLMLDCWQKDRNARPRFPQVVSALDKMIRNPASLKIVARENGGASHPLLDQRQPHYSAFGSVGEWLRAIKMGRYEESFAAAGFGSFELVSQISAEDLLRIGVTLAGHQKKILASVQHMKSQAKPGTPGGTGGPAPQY
Description: D-Tyr-P3 is highlighted in red. […] Vertical axes, in response units (RU), represent binding of the peptide to immobilized EphB4. […] Individual duplicates were performed in each condition. Data are presented as mean±SD.
Cell-based binding assay. […] Cells were analyzed in a Cellquest fluorocytometer (BD Bioscience, San Jose, Calif.). The experiments were run in duplicate.

[4] = biological target: T1, recombinant human EphB4 (rhEphB4); assay: SPR, peptide over immobilized EphB4, 1:1 mass transfer interaction model
Description: as §1

[5] = biological target: T1, recombinant human EphB4 (rhEphB4); assay: SPR competition: BIDEN-AP (2-1000 nM) mixed with human EphB4 (30 nM), injected on EFNB2-Fc-coated CM5 chip
[6] = biological target: T1, recombinant human EphB4 (rhEphB4); assay: SPR (BIACore), peptide 1.6-800 nM injected over immobilized rhEphB4; remark: listed apart in the source
Description: Peptides in concentrations of 1.6 nM to 800 nM were injected over the rhEphB4 sensor chips, and the magnitude of peptide binding to immobilized EphB4 in response units (RU) was recorded.
as §1

B1: B4-008, TNYLFSPNGPIARA (peptide)
peptide: TNYLFSPNGPIARA
notes: also called TNYL-RAW truncated of C-terminus Trp-P15
[1]
  Kd: 13 nM
[2]
  Kd: 60 nM

B2: BIDEN-AP (bi-directional ephrin agonist peptide), TN(dY)LFSPNGPIARAW (peptide)
peptide: TN[dY]LFSPNGPIARAW
notes: Synthetic 15-mer made by solid phase synthesis on Rink resin; also called EphB4 agonist peptide
[3]
  IC50: ~1000 nM
[4]
  Kd: 7 nM
[5]
  IC50: 4 nM

B3: YLFSPNGPIARAW (peptide)
peptide: YLFSPNGPIARAW
notes: also called TNYL-RAW truncated of N-terminus Thr-Asn (P1-P2)
[2]
  Kd: 5.2 nM

B4: TNYLFSPNGPIAR (peptide)
peptide: TNYLFSPNGPIAR
notes: also called TNYL-RAW truncated of C-terminus Ala-Trp (P14-P15)
[2]
  Kd: 192 nM

## T[dN]YLFSPNGPIARAW (also called TNYL-RAW with D-Asn at P2) [T(dN)YLFSPNGPIARAW]
[6]
  Kd: 5 nM

## TNY[dL]FSPNGPIARAW [B4-004, TNY(dL)FSPNGPIARAW]
[1]
  Kd: 65 nM

B5: NYLFSPNGPIARAW (peptide)
peptide: NYLFSPNGPIARAW
notes: also called TNYL-RAW truncated of N-terminus Thr-P1
[2]
  Kd: 4.2 nM

## TNYLFSPNGPIARAW (D-Arg at position 13) [B4-002, TNYLFSPNGPIA(dR)AW]
[1]
  Kd: 39 nM

B6: TNYL-RAW (peptide)
peptide: TNYLFSPNGPIARAW
notes: also called EphB4 antagonist TNYL-RAW peptide
[1]
  Kd: 3.1 nM

## TNYLFSPNGPIAR[dA]W (also called TNYL-RAW with D-Ala at P14) [TNYLFSPNGPIAR(dA)W]
[6]
  Kd: 43 nM

B7: B4-001, Cyclo(KTNYLFSPNGPIARAWD) (peptide)
peptide: KTNYLFSPNGPIARAWD
modifications: not fully specified (bridges); printed as Cyclo(KTNYLFSPNGPIARAWD); also: cyclic, ring-closing atoms not given here
[1]
  Kd: 4.4 nM

## TNYL[dF]SPNGPIARAW [B4-005, TNYL(dF)SPNGPIARAW]
[6]
  Kd: 841 nM
[1]
  Kd: 75 nM

## TNYLF[dS]PNGPIARAW [B4-006, TNYLF(dS)PNGPIARAW]
[6]
  Kd: 7700 nM

## TNYLFSPNGPIARA[dW] (also called TNYL-RAW with D-Trp at P15) [TNYLFSPNGPIARA(dW)]
[6]
  Kd: 8 nM
